According to patent US20050202434:

Biological target: T1, metallo-beta-lactamase (beta-lactamase II) 5/B/6 (Bacillus cereus) (UniProt P14488)
T1 sequence: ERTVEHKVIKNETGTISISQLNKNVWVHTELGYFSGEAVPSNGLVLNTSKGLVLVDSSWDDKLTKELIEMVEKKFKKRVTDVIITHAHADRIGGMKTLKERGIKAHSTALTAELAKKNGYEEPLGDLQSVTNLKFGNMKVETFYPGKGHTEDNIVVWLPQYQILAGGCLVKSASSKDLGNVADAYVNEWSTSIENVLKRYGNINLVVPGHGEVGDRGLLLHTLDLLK
Assay: inhibition

Row | Sequence | activity (% control activity)
1 | ANCNANNNTTNNNTNGNNGNNCATNNNNAA [round 16 SELEX pool (consensus 30N)] | 47
2 | GCGCCATATGCGCGCGNNNNNNNNNNNNNNNNNNNNNNNNNNNNNNCGCGCGGAGCTCGCG [initial random 61-mer pool] | 100
